# Source: patent publication US20220289833A1 (BIOSION, published 2022)
# Legend:
# [1] = target: T1, Recombinant human TSLP-his (human, UniProt Q969D9 29-159); test: SPR, Biacore T200; TSLP-his amine-coupled to CM5 chip, antibody as analyte; 1:1 Langmuir fit
# T1 construct: Prepared in-house; Amine-coupled to CM5 chip in SPR, loaded on APS sensors in Octet, biotin-labeled in the capture ELISA, unlabeled in the cell functional assays; also called human TSLP-his protein
# Protocol: (§1) Briefly, Biosion in house synthesized recombinant human TSLP-his (SEQ ID NO.: 28) or cynomolgus monkey TSLP-his protein (SEQ ID NO.: 29) in CH₃COONa buffer (provided by Biocore) at the concentration of 10 μg/mL was covalently linked to a CM5 chip (carboxy methyl dextran coated chip from GE healthcare #BR100530) via primary amines, using a standard amine coupling kit provided by Biacore (GE healthcare, Pittsburgh, Pa., USA). Un-reacted moieties on the biosensor surface were blocked with ethanolamine. […] The antigen-antibody association kinetics was followed for 4 minutes and the dissociation kinetics was followed for 13 minutes. The association and dissociation curves were fit to a 1:1 Langmuir binding model using BIAcore evaluation software, and the KD, Kₐ and Kd values were determined and shown in Table 2 below.
# [2] = target: T1, Recombinant human TSLP-his; test: SPR, Biacore T200; protocol of Example 2
# Protocol: as §1
# [3] = target: T1, Recombinant human TSLP-his; test: SPR, Biacore T200; below the instrument limit, roughly calculated from the sensorgram
# Protocol: as §1
Binder,Kd [1],koff [1],kon [1],Kd [2],koff [2],kon [2],koff [3]
"1F5H12D7 (antibody, V domains shown) VH: QVQLQQPGTELVKPGASVKMSCKASGYTFTTYWMHWVKQRPGQGLEWIGVIDPSDSDTTYNQKFKGKATLTVDTSSSTAYMQLSSLTSEDSAVYYCTRSLDGYYDYWGQGTTLTVSS VL: DIQMTQSPASLSASVGETVTITCRPTENIYSYLAWYQQKQGKSPHLLVYFARTLAEGVPSRFSGSGSGTQFSLKINSLQPEDFGIYYCQHHYGTPWTFGGGTKLEIK",< 0.112 nM,< 1e-05 s⁻¹,89700 M⁻¹ s⁻¹,,,,
"1H3F11B7 (antibody, V domains shown, Mouse hybridoma mAb) VH: QVQLQQPGTELVKPGASVKMSCKASGYTFTTYWMHWVKQRPGQGLEWIGVIDPSDSDTTYNQKFKGKATLTVDTSSSTAYMQLSSLTSEDSAVYYCTRSLDGYYDYWGQGTTLTVSS VL: DIQMTQSPASLSASVGETVTITCRPTENIYSYLAWYQQKQGKSPHLLVYFARTLAEGVPSRFSGSGSGTQFSLKINSLQPEDFGIYYCQHHYGTPWTFGGGTKLEIK",< 0.108 nM,< 1e-05 s⁻¹,92900 M⁻¹ s⁻¹,,,,
"1G2H12A1 (antibody, V domains shown, Mouse hybridoma mAb) VH: QVQLQQPGTELVKPGASVKMSCKASGYTFTTYWMHWVKQRPGQGLEWIGVIDPSDSDTTYNQKFKGKATLTVDTSSSTAYMQLSSLTSEDSAVYYCTRSLDGYYDYWGQGTTLTVSS VL: DIQMTQSPASLSASVGETVTITCRPTENIYSYLAWYQQKQGKSPHLLVYFARTLAEGVPSRFSGSGSGTQFSLKINSLQPEDFGIYYCQHHYGTPWTFGGGTKLEIK",< 0.117 nM,< 1e-05 s⁻¹,85200 M⁻¹ s⁻¹,,,,
"1G3B9B1 (antibody, V domains shown, Mouse hybridoma mAb) VH: QVQLQQPGTELVKPGASVKMSCKASGYTFTTYWMHWVKQRPGQGLEWIGVIDPSDSDTTYNQKFKGKATLTVDTSSSTAYMQLSSLTSEDSAVYYCTRSLDGYYDYWGQGTTLTVSS VL: DIQMTQSPASLSASVGETVTITCRPTENIYSYLAWYQQKQGKSPHLLVYFARTLAEGVPSRFSGSGSGTQFSLKINSLQPEDFGIYYCQHHYGTPWTFGGGTKLEIK",< 0.107 nM,< 1e-05 s⁻¹,93600 M⁻¹ s⁻¹,,,,
"hu1C5F12E9-V16 (antibody, human IgG4 S228P, kappa, V domains shown) VH: QVQLVQSGAEVKKPGASVKVSCKASGYTFTTYWMHWVRQAPGQGLEWMGVIDPSDSDTTYNQKFKGRATMTRDTSTSTVYMELSSLRSEDTAVYYCTRSLDGYYDYWGQGTLVTVSS VL: DIQMTQSPSSLSASVGDRVTITCRPTENIYSYLAWYQQKPGKSPKLLIYFARTLAEGVPSRFSGSGSGTDFTLTISSLQPEDFATYYCQHHYGTPWTFGGGTKVEIKR",,,,< 0.0962 nM,< 1e-05 s⁻¹,104000 M⁻¹ s⁻¹,~1.17e-06 s⁻¹
"hu1C5F12E9-V9 (antibody, human IgG4 S228P, kappa, V domains shown) VH: QVQLVQSGAEVKKPGASVKVSCKASGYTFTTYWMHWVRQAPGQGLEWMGVIDPSDSDTTYNQKFKGRVTMTVDTSTSTVYMELSSLRSEDTAVYYCTRSLDGYYDYWGQGTLVTVSS VL: DIQMTQSPSSLSASVGDRVTITCRPTENIYSYLAWYQQKPGKAPKLLIYFARTLAEGVPSRFSGSGSGTDFTLTISSLQPEDFATYYCQHHYGTPWTFGGGTKVEIKR",,,,< 0.082 nM,< 1e-05 s⁻¹,122000 M⁻¹ s⁻¹,~6.57e-07 s⁻¹
"hu1C5F12E9-V17 (antibody, human IgG4 S228P, kappa, V domains shown) VH: QVQLVQSGAEVKKPGASVKVSCKASGYTFTTYWMHWVRQAPGQGLEWMGVIDPSDSDTTYNQKFKGKATMTRDTSTSTVYMELSSLRSEDTAVYYCTRSLDGYYDYWGQGTLVTVSS VL: DIQMTQSPSSLSASVGDRVTITCRPTENIYSYLAWYQQKPGKSPKLLIYFARTLAEGVPSRFSGSGSGTDFTLTISSLQPEDFATYYCQHHYGTPWTFGGGTKVEIKR",,,,< 0.0909 nM,< 1e-05 s⁻¹,110000 M⁻¹ s⁻¹,~6.43e-06 s⁻¹
"hu1C5F12E9-V15 (antibody, human IgG4 S228P, kappa, V domains shown) VH: QVQLVQSGAEVKKPGASVKVSCKASGYTFTTYWMHWVRQAPGQGLEWMGVIDPSDSDTTYNQKFKGRVTMTVDTSTSTVYMELSSLRSEDTAVYYCTRSLDGYYDYWGQGTLVTVSS VL: DIQMTQSPSSLSASVGDRVTITCRPTENIYSYLAWYQQKPGKSPKLLIYFARTLAEGVPSRFSGSGSGTDFTLTISSLQPEDFATYYCQHHYGTPWTFGGGTKVEIKR",,,,< 0.0893 nM,< 1e-05 s⁻¹,112000 M⁻¹ s⁻¹,~3.63e-06 s⁻¹
"hu1C5F12E9-V12 (antibody, human IgG4 S228P, kappa, V domains shown) VH: QVQLVQSGAEVKKPGASVKVSCKASGYTFTTYWMHWVRQAPGQGLEWMGVIDPSDSDTTYNQKFKGKATMTVDTSTSTVYMELSSLRSEDTAVYYCTRSLDGYYDYWGQGTLVTVSS VL: DIQMTQSPSSLSASVGDRVTITCRPTENIYSYLAWYQQKPGKAPKLLIYFARTLAEGVPSRFSGSGSGTDFTLTISSLQPEDFATYYCQHHYGTPWTFGGGTKVEIKR",,,,< 0.104 nM,< 1e-05 s⁻¹,96100 M⁻¹ s⁻¹,< 1e-05 s⁻¹
"hu1C5F12E9-V11 (antibody, human IgG4 S228P, kappa, V domains shown) VH: QVQLVQSGAEVKKPGASVKVSCKASGYTFTTYWMHWVRQAPGQGLEWMGVIDPSDSDTTYNQKFKGKATMTRDTSTSTVYMELSSLRSEDTAVYYCTRSLDGYYDYWGQGTLVTVSS VL: DIQMTQSPSSLSASVGDRVTITCRPTENIYSYLAWYQQKPGKAPKLLIYFARTLAEGVPSRFSGSGSGTDFTLTISSLQPEDFATYYCQHHYGTPWTFGGGTKVEIKR",,,,< 0.11 nM,< 1e-05 s⁻¹,90700 M⁻¹ s⁻¹,~7.56e-07 s⁻¹
"hu1C5F12E9-V3 (antibody, human IgG4 S228P, kappa, V domains shown) VH: QVQLVQSGAEVKKPGASVKVSCKASGYTFTTYWMHWVRQAPGQGLEWMGVIDPSDSDTTYNQKFKGRVTMTVDTSTSTVYMELSSLRSEDTAVYYCTRSLDGYYDYWGQGTLVTVSS VL: DIQMTQSPSSLSASVGDRVTITCRPTENIYSYLAWYQQKPGKSPKLLVYFARTLAEGVPSRFSGSGSGTDFTLTISSLQPEDFATYYCQHHYGTPWTFGGGTKVEIKR",,,,< 0.0971 nM,< 1e-05 s⁻¹,103000 M⁻¹ s⁻¹,< 1e-05 s⁻¹
"hu1C5F12E9-V18 (antibody, human IgG4 S228P, kappa, V domains shown) VH: QVQLVQSGAEVKKPGASVKVSCKASGYTFTTYWMHWVRQAPGQGLEWMGVIDPSDSDTTYNQKFKGKATMTVDTSTSTVYMELSSLRSEDTAVYYCTRSLDGYYDYWGQGTLVTVSS VL: DIQMTQSPSSLSASVGDRVTITCRPTENIYSYLAWYQQKPGKSPKLLIYFARTLAEGVPSRFSGSGSGTDFTLTISSLQPEDFATYYCQHHYGTPWTFGGGTKVEIKR",,,,< 0.0826 nM,< 1e-05 s⁻¹,121000 M⁻¹ s⁻¹,~9.65e-06 s⁻¹
"hu1C5F12E9-V13 (antibody, human IgG4 S228P, kappa, V domains shown) VH: QVQLVQSGAEVKKPGASVKVSCKASGYTFTTYWMHWVRQAPGQGLEWIGVIDPSDSDTTYNQKFKGRATLTVDTSSSTAYMELSSLRSEDTAVYYCTRSLDGYYDYWGQGTLVTVSS VL: DIQMTQSPSSLSASVGDRVTITCRPTENIYSYLAWYQQKPGKSPKLLIYFARTLAEGVPSRFSGSGSGTDFTLTISSLQPEDFATYYCQHHYGTPWTFGGGTKVEIKR",,,,< 0.0962 nM,< 1e-05 s⁻¹,104000 M⁻¹ s⁻¹,~3.62e-07 s⁻¹
"hu1C5F12E9-V5 (antibody, human IgG4 S228P, kappa, V domains shown) VH: QVQLVQSGAEVKKPGASVKVSCKASGYTFTTYWMHWVRQAPGQGLEWMGVIDPSDSDTTYNQKFKGKATMTRDTSTSTVYMELSSLRSEDTAVYYCTRSLDGYYDYWGQGTLVTVSS VL: DIQMTQSPSSLSASVGDRVTITCRPTENIYSYLAWYQQKPGKSPKLLVYFARTLAEGVPSRFSGSGSGTDFTLTISSLQPEDFATYYCQHHYGTPWTFGGGTKVEIKR",,,,< 0.0971 nM,< 1e-05 s⁻¹,103000 M⁻¹ s⁻¹,< 1e-05 s⁻¹
"hu1C5F12E9-V1 (antibody, human IgG4 S228P, kappa, V domains shown) VH: QVQLVQSGAEVKKPGASVKVSCKASGYTFTTYWMHWVRQAPGQGLEWIGVIDPSDSDTTYNQKFKGRATLTVDTSSSTAYMELSSLRSEDTAVYYCTRSLDGYYDYWGQGTLVTVSS VL: DIQMTQSPSSLSASVGDRVTITCRPTENIYSYLAWYQQKPGKSPKLLVYFARTLAEGVPSRFSGSGSGTDFTLTISSLQPEDFATYYCQHHYGTPWTFGGGTKVEIKR",,,,< 0.101 nM,< 1e-05 s⁻¹,99300 M⁻¹ s⁻¹,< 1e-05 s⁻¹
"hu1C5F12E9-V7 (antibody, human IgG4 S228P, kappa, V domains shown) VH: QVQLVQSGAEVKKPGASVKVSCKASGYTFTTYWMHWVRQAPGQGLEWIGVIDPSDSDTTYNQKFKGRATLTVDTSSSTAYMELSSLRSEDTAVYYCTRSLDGYYDYWGQGTLVTVSS VL: DIQMTQSPSSLSASVGDRVTITCRPTENIYSYLAWYQQKPGKAPKLLIYFARTLAEGVPSRFSGSGSGTDFTLTISSLQPEDFATYYCQHHYGTPWTFGGGTKVEIKR",,,,< 0.0926 nM,< 1e-05 s⁻¹,108000 M⁻¹ s⁻¹,< 1e-05 s⁻¹
